From PMC4662715

Target: CCR1-rHDL (human C-C chemokine receptor 1 with C-terminal 1D4 tag, in reconstituted high density lipoprotein) (human) (UniProt P32246)
Test: SPR; CCR1-rHDL captured via immobilised 1D4 antibody on a CM5 chip (~3000 RU); MIP-1α variant flowed at 0.13-5.0 μM; 25 °C; 20 mM HEPES, pH 7.2, 100 mM NaCl; empty-rHDL on the control flow cell; steady-state fit

UniProt P32246, sequence (P32246 whole entry): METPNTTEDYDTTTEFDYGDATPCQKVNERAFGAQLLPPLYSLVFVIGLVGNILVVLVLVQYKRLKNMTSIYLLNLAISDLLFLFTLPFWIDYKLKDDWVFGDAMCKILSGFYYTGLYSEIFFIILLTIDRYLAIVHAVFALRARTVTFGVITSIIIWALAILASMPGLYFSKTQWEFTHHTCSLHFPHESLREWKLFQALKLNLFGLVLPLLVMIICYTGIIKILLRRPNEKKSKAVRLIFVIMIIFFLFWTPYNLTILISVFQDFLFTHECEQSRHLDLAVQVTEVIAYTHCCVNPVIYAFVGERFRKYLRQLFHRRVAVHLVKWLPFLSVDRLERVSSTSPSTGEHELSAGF

Kd: 2 µM
Substance: MIP-1α variant (P8A/F13Y/E67Q) (ligand)
